Measured values from patent US20080058263A1 (published 2008).

Key:
Experiment in all cases: receptor-Fc IP
[1] = molecular target: T1, VEGFR-1-Fc (UniProt P17948 27-338)
T1 construct: domain: first three Ig domains; expressed in Drosophila S2 cells, purified on Protein A sepharose; also called VEGFR-1-Fc fusion protein; not shown: Fc fragment from the Signal-pIgPlus vector
Summary of the method: (§1)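 fusion protein at 400 ng/ml in an IP mix (PBS, 1.5% BSA, 0.06% Tween 20, 3 μg/ml heparin) was combined with sample supernatant at a 1:2 ratio. Bound ligand captured by immunoprecipitation with pentahistidine antibody.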

[2] = molecular target: T2, VEGFR-2-Fc (UniProt P35968 20-322)
T2 construct: domain: first 3 Ig domains; conditioned supernatant of 293T cells; also called VEGFR-2-Fc fusion protein; not shown: Fc fragment of the pIg vector
Summary of the method: as §1

[3] = molecular target: T3, VEGFR-3-Fc (UniProt P35916 25-328)
T3 construct: domain: first three Ig domains; conditioned supernatant of 293T cells; also called VEGFR-3-Fc fusion protein; not shown: Fc fragment of the pIg vector
T3 sequence (looked up): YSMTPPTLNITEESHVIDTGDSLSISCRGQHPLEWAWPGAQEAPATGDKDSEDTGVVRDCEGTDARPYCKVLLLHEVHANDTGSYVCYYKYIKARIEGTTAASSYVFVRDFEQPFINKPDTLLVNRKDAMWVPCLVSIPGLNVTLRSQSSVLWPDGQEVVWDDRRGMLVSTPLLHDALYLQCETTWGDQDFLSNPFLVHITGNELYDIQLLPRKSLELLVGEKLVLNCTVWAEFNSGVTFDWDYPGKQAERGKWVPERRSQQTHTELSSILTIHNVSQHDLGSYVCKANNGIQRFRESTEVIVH
Summary of the method: as §1

Measured: binding result

T1 sequence (P17948 27-338): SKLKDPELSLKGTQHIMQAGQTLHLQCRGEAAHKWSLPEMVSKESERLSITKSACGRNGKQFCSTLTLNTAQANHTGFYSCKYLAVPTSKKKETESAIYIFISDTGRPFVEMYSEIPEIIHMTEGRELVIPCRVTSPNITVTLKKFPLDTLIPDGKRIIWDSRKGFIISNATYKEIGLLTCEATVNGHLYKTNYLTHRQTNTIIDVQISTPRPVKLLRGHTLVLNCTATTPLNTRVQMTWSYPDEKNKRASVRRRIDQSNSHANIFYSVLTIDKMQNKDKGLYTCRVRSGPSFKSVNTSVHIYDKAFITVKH
T2 sequence (P35968 20-322): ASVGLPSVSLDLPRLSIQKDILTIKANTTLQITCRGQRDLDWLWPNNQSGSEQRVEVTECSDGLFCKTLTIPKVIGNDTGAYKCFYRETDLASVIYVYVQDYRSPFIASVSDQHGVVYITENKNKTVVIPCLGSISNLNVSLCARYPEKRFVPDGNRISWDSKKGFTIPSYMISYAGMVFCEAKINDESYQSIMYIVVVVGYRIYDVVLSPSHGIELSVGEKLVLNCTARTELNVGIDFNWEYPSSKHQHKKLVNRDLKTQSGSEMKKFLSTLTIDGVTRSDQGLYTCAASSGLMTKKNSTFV

B1: 14-13 (ligand)
chain: GQNHHEVVKFMDVYQRSYCHPIETLVDIFQEFGVATNTFFKPSCVPLMRCGGCCNDEGLECVPTEESNITMQIMRITVPLSQGPKPVTISFANHTSCRCMSKLD
no binding: all assays above

B2: 14-15 (ligand)
chain: GQNHHEVVKFMDVYQRSYCHPIETLVDIFQEFGVATNTFFKPSCVPLMRCGGCCNSEGLQCVPTEESNITMQIMRITVPLSQGPKPVTISFANHTSCRCMSKLD
no binding: all assays above

B3: 31-6 (ligand)
chain: GQNHHEVVKSIDNEWRKTQCMPIETLVDIFQEYPDEIEYIFKPSCVPLMRCGGCCNDEGLECMNTSTSYLSKTLFEIKPHQGQHIGEMSFANHTSCRCMSKLD
no binding: all assays above

B4: 13-14 (ligand)
chain: GQNHHEVVKFMDVYQRSYCHPIETLVDIFQEYPDEIEYIFKPPCVSVYRCGGCCNDEGLECMNTSTSYLSKTLFEITVPLSQGPKPVTISFANHTSCRCMSKLD
no binding: all assays above

B5: 54-7 (ligand)
chain: AHYNTEILKSIDNEWRKTQCMPIETLVDIFQEFGVATNTFFKPSCVPLMRCGGCCNSEGLQCVPTEESNITMQIMRIKPHQGQHIGEMSFANHTSCRCMSKLD
no binding: all assays above

B6: 74-7 (ligand)
chain: GQNHHEVVKSIDNEWRKTQCMPREVCIDVGKEFGVATNTFFKPSCVPLMRCGGCCNSEGLQCVPTEESNITMQIMRIKPHQGQHIGEMSFANHTSCRCMSKLD
no binding: all assays above

B7: 74-5 (ligand)
chain: GQNHHEVVKSIDNEWRKTQCMPREVCIDVGKEFGVATNTFFKPSCVPLMRCGGCCNDEGLECVPTEESNITMQIMRIKPHQGQHIGEMSFANHTSCRCMSKLD
no binding: all assays above

B8: 72-5 (ligand)
chain: GQNHHEVVKSIDNEWRKTQCMPREVCIDVGKEFGVATNTFFKPPCVSVYRCGGCCNDEGLECVPTEESNITMQIMRIKPHQGQHIGEMSFANHTSCRCMSKLD
no binding: all assays above

B9: 13-4 (ligand)
chain: GQNHHEVVKFMDVYQRSYCHPIETLVDIFQEYPDEIEYIFKPPCVSVYRCGGCCNSEGLQCMNTSTSYLSKTLFEIKPHQGQHIGEMSFLQHNKCECRPKKD
no binding: all assays above

B10: 72-7 (ligand)
chain: GQNHHEVVKSIDNEWRKTQCMPREVCIDVGKEFGVATNTFFKPPCVSVYRCGGCCNSEGLQCVPTEESNITMQIMRIKPHQGQHIGEMSFANHTSCRCMSKL
no binding: all assays above

B11: 23-1 (ligand)
chain: AHYNTEILKSIDNEWRKTQCMPREVCIDVGKEYPDEIEYIFKPPCVSVYRCGGCCNDEGLECVPTEESNITMQIMRIKPHQGQHIGEMSFLQHNKCECRPKKD
no binding: all assays above
